Measured values: publication PMC6515374, “Virus-Like Particle Facilitated Deposition of Hydroxyapatite Bone Mineral on Nanocellulose after Exposure to Phosphate and Calcium Precursors” (International Journal of Molecular Sciences, 2019)

Molecular target: the molecule itself
Experiment: transmission electron microscopy; purified VLPs on carbon coated copper grids, stained with 2% uranyl acetate, 80 kV; also confirmed by atomic force microscopy (Figure S1)

B1: Tobacco mosaic virus coat protein subunit with the E50Q and D77N mutations (assembles into TMV virus-like particles) (natural protein, UniProt P69687 1-159, looked up)
chain: MSYSITTPSQFVFLSSAWADPIELINLCTNALGNQFQTQQARTVVQRQFSQVWKPSPQVTVRFPDSDFKVYRYNAVLNPLVTALLGAFDTRNRIIEVENQANPTTAETLDATRRVDDATVAIRSAINNLIVELIRGTGSYNRSSFESSSGLVWTSGPAT
notes: Tobacco mosaic virus coat protein, codon optimized for bacterial expression, in pET-21a(+) at NdeI/XhoI with a stop codon to prevent fusion to the His tag; No tag: a stop codon stands before the vector's His tag; Assembles without viral RNA into rods of 18 nm diameter and variable length; also called TMV VLPs; TMV CP; source: E. coli BL21(DES)pLysS, purified (chloroform, PEG 8000/NaCl …)
  binding result: binds
